Target: T1, EsCas13d, nuclease-dead (Eubacterium siraeum, UniProt B0MS50, R295A;H300A;R849A;H854A)
T1 sequence: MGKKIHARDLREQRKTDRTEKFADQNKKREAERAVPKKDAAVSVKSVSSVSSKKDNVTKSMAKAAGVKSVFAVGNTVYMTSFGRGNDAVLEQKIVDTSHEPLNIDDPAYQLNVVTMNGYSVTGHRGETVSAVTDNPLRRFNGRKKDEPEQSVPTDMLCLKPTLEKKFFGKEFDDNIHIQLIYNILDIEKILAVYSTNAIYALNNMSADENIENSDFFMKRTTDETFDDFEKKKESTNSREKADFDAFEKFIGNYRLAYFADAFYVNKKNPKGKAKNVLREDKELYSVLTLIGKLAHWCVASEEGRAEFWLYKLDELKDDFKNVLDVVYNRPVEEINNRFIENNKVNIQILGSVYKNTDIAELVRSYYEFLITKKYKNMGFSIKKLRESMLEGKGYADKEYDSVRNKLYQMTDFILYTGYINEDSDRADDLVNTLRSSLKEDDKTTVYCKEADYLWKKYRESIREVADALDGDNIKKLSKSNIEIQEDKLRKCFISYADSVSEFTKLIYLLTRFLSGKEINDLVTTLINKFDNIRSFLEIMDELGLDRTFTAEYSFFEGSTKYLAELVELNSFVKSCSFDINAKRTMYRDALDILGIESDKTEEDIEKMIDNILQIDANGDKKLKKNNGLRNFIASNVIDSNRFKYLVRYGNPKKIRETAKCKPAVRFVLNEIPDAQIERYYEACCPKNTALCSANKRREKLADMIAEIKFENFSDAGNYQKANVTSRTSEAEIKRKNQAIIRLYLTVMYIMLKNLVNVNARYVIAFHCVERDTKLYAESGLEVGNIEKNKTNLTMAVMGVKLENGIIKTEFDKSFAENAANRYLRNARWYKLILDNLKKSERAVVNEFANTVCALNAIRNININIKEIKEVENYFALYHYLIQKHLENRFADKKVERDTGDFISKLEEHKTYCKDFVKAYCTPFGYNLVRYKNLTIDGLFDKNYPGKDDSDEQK
Experiment: crRNA (strand 1, pre-loaded); Mg2+; 40 mM Tris-HCl pH 7.5, 150 mM NaCl, 6 mM MgCl2, 1 mM DTT, 0.1% Tween-20, 0.2 mg/ml BSA; 25 C; 10 min per concentration, then washed
Conditions: tags: His6-TwinStrep-SUMO cleaved; N-terminal SNAP kept (SNAP-Surface 488); label: 3' end held by stalled T7 RNA polymerase

Row | Binder | Kd [nM]
1 | target 1 C6U,A20U (mixed) RNA 1: CACCCGUGCAAAAAUGCAGGGGUCUAAAACUGAGCGGAUAACCUCUCUAUGG RNA 2: GGGAAUGGAUCCACAUCUACGAAUUCGUACCUUAGAGAGGUUAUCUGCUCACCGAGAUCGGAAGAGCACACGU | 35 ± 5
2 | target 1 insG 3' of 10,insA 3' of 3 (mixed) RNA 1: CACCCGUGCAAAAAUGCAGGGGUCUAAAACUGAGCGGAUAACCUCUCUAUGG RNA 2: GGGAAUGGAUCCACAUCUACGAAUUCGUACCAUAGAGAGGUUGAUCCGCUACACCGAGAUCGGAAGAGCACACGU | 45 ± 6
3 | target 2 MT 5'PFS AUA 3'PFS AAC (mixed) RNA 1: CACCCGUGCAAAAUUGCAGGGGUCUAAAACCUUCUCCAAAUUGUUUCAUCCU RNA 2: GGGAAUGGAUCCACAUCUACGAAUUCAUAAGGAUGAAACAAUUUGGAGAAGAACAGAUCGGAAGAGCACACGU | 5.2 ± 0.9
4 | target 2 MT 5'PFS CGC 3'PFS CGU (mixed) RNA 1: CACCCGUGCAAAAUUGCAGGGGUCUAAAACCUUCUCCAAAUUGUUUCAUCCU RNA 2: GGGAAUGGAUCCACAUCUACGAAUUCCGCAGGAUGAAACAAUUUGGAGAAGCGUAGAUCGGAAGAGCACACGU | 3.5 ± 0.4
5 | target 2 MT 5'PFS UUG 3'PFS AUG (mixed) RNA 1: CACCCGUGCAAAAUUGCAGGGGUCUAAAACCUUCUCCAAAUUGUUUCAUCCU RNA 2: GGGAAUGGAUCCACAUCUACGAAUUCUUGAGGAUGAAACAAUUUGGAGAAGAUGAGAUCGGAAGAGCACACGU | 13.1 ± 1.5
6 | target 2 MT 5'PFS UUG 3'PFS AUU (mixed) RNA 1: CACCCGUGCAAAAUUGCAGGGGUCUAAAACCUUCUCCAAAUUGUUUCAUCCU RNA 2: GGGAAUGGAUCCACAUCUACGAAUUCUUGAGGAUGAAACAAUUUGGAGAAGAUUAGAUCGGAAGAGCACACGU | 11.9 ± 1
7 | target 2 MT 5'PFS AUG 3'PFS AAC (mixed) RNA 1: CACCCGUGCAAAAUUGCAGGGGUCUAAAACCUUCUCCAAAUUGUUUCAUCCU RNA 2: GGGAAUGGAUCCACAUCUACGAAUUCAUGAGGAUGAAACAAUUUGGAGAAGAACAGAUCGGAAGAGCACACGU | 18 ± 6
8 | target 2 MT 5'PFS GCG 3'PFS ACA (mixed) RNA 1: CACCCGUGCAAAAUUGCAGGGGUCUAAAACCUUCUCCAAAUUGUUUCAUCCU RNA 2: GGGAAUGGAUCCACAUCUACGAAUUCGCGAGGAUGAAACAAUUUGGAGAAGACAAGAUCGGAAGAGCACACGU | 16 ± 4
9 | target 2 MT 5'PFS AUG 3'PFS AAA (mixed) RNA 1: CACCCGUGCAAAAUUGCAGGGGUCUAAAACCUUCUCCAAAUUGUUUCAUCCU RNA 2: GGGAAUGGAUCCACAUCUACGAAUUCAUGAGGAUGAAACAAUUUGGAGAAGAAAAGAUCGGAAGAGCACACGU | 7.8 ± 1.6
10 | target 2 MT 5'PFS UUG 3'PFS AUC (mixed) RNA 1: CACCCGUGCAAAAUUGCAGGGGUCUAAAACCUUCUCCAAAUUGUUUCAUCCU RNA 2: GGGAAUGGAUCCACAUCUACGAAUUCUUGAGGAUGAAACAAUUUGGAGAAGAUCAGAUCGGAAGAGCACACGU | 14.1 ± 1.3
11 | target 2 MT 5'PFS GCG 3'PFS ACG (mixed) RNA 1: CACCCGUGCAAAAUUGCAGGGGUCUAAAACCUUCUCCAAAUUGUUUCAUCCU RNA 2: GGGAAUGGAUCCACAUCUACGAAUUCGCGAGGAUGAAACAAUUUGGAGAAGACGAGAUCGGAAGAGCACACGU | 14 ± 2.1
12 | target 2 MT 5'PFS CAU 3'PFS CUA (mixed) RNA 1: CACCCGUGCAAAAUUGCAGGGGUCUAAAACCUUCUCCAAAUUGUUUCAUCCU RNA 2: GGGAAUGGAUCCACAUCUACGAAUUCCAUAGGAUGAAACAAUUUGGAGAAGCUAAGAUCGGAAGAGCACACGU | 4.1 ± 0.6
13 | target 2 MT 5'PFS GUC 3'PFS ACU (mixed) RNA 1: CACCCGUGCAAAAUUGCAGGGGUCUAAAACCUUCUCCAAAUUGUUUCAUCCU RNA 2: GGGAAUGGAUCCACAUCUACGAAUUCGUCAGGAUGAAACAAUUUGGAGAAGACUAGAUCGGAAGAGCACACGU | 20.5 ± 2.1
14 | target 2 MT 5'PFS AUG 3'PFS AAU (mixed) RNA 1: CACCCGUGCAAAAUUGCAGGGGUCUAAAACCUUCUCCAAAUUGUUUCAUCCU RNA 2: GGGAAUGGAUCCACAUCUACGAAUUCAUGAGGAUGAAACAAUUUGGAGAAGAAUAGAUCGGAAGAGCACACGU | 7.6 ± 1
15 | target 2 MT 5'PFS UUG 3'PFS AUA (mixed) RNA 1: CACCCGUGCAAAAUUGCAGGGGUCUAAAACCUUCUCCAAAUUGUUUCAUCCU RNA 2: GGGAAUGGAUCCACAUCUACGAAUUCUUGAGGAUGAAACAAUUUGGAGAAGAUAAGAUCGGAAGAGCACACGU | 9.4 ± 0.8
16 | target 2 MT 5'PFS CGC 3'PFS CGA (mixed) RNA 1: CACCCGUGCAAAAUUGCAGGGGUCUAAAACCUUCUCCAAAUUGUUUCAUCCU RNA 2: GGGAAUGGAUCCACAUCUACGAAUUCCGCAGGAUGAAACAAUUUGGAGAAGCGAAGAUCGGAAGAGCACACGU | 6.7 ± 2.1
17 | target 2 MT 5'PFS CGC 3'PFS UUU (mixed) RNA 1: CACCCGUGCAAAAUUGCAGGGGUCUAAAACCUUCUCCAAAUUGUUUCAUCCU RNA 2: GGGAAUGGAUCCACAUCUACGAAUUCCGCAGGAUGAAACAAUUUGGAGAAGUUUAGAUCGGAAGAGCACACGU | 17 ± 4
18 | target 2 MT 5'PFS AUA 3'PFS AAG (mixed) RNA 1: CACCCGUGCAAAAUUGCAGGGGUCUAAAACCUUCUCCAAAUUGUUUCAUCCU RNA 2: GGGAAUGGAUCCACAUCUACGAAUUCAUAAGGAUGAAACAAUUUGGAGAAGAAGAGAUCGGAAGAGCACACGU | 5.9 ± 1.4
19 | target 2 MT 5'PFS ACC 3'PFS CUC (mixed) RNA 1: CACCCGUGCAAAAUUGCAGGGGUCUAAAACCUUCUCCAAAUUGUUUCAUCCU RNA 2: GGGAAUGGAUCCACAUCUACGAAUUCACCAGGAUGAAACAAUUUGGAGAAGCUCAGAUCGGAAGAGCACACGU | 7.4 ± 1.2
20 | target 2 MT 5'PFS GUC 3'PFS ACG (mixed) RNA 1: CACCCGUGCAAAAUUGCAGGGGUCUAAAACCUUCUCCAAAUUGUUUCAUCCU RNA 2: GGGAAUGGAUCCACAUCUACGAAUUCGUCAGGAUGAAACAAUUUGGAGAAGACGAGAUCGGAAGAGCACACGU | 16.1 ± 1.3
21 | target 2 MT 5'PFS GCG 3'PFS ACC (mixed) RNA 1: CACCCGUGCAAAAUUGCAGGGGUCUAAAACCUUCUCCAAAUUGUUUCAUCCU RNA 2: GGGAAUGGAUCCACAUCUACGAAUUCGCGAGGAUGAAACAAUUUGGAGAAGACCAGAUCGGAAGAGCACACGU | 30 ± 8
22 | target 2 MT 5'PFS ACC 3'PFS CUG (mixed) RNA 1: CACCCGUGCAAAAUUGCAGGGGUCUAAAACCUUCUCCAAAUUGUUUCAUCCU RNA 2: GGGAAUGGAUCCACAUCUACGAAUUCACCAGGAUGAAACAAUUUGGAGAAGCUGAGAUCGGAAGAGCACACGU | 9 ± 1.1
23 | target 2 MT 5'PFS AUA 3'PFS AAA (mixed) RNA 1: CACCCGUGCAAAAUUGCAGGGGUCUAAAACCUUCUCCAAAUUGUUUCAUCCU RNA 2: GGGAAUGGAUCCACAUCUACGAAUUCAUAAGGAUGAAACAAUUUGGAGAAGAAAAGAUCGGAAGAGCACACGU | 5 ± 0.8
24 | target 2 MT 5'PFS GUC 3'PFS ACC (mixed) RNA 1: CACCCGUGCAAAAUUGCAGGGGUCUAAAACCUUCUCCAAAUUGUUUCAUCCU RNA 2: GGGAAUGGAUCCACAUCUACGAAUUCGUCAGGAUGAAACAAUUUGGAGAAGACCAGAUCGGAAGAGCACACGU | 28 ± 6
25 | target 2 MT 5'PFS GUC 3'PFS ACA (mixed) RNA 1: CACCCGUGCAAAAUUGCAGGGGUCUAAAACCUUCUCCAAAUUGUUUCAUCCU RNA 2: GGGAAUGGAUCCACAUCUACGAAUUCGUCAGGAUGAAACAAUUUGGAGAAGACAAGAUCGGAAGAGCACACGU | 18.5 ± 2.7
26 | target 2 MT 5'PFS UUG 3'PFS CUA (mixed) RNA 1: CACCCGUGCAAAAUUGCAGGGGUCUAAAACCUUCUCCAAAUUGUUUCAUCCU RNA 2: GGGAAUGGAUCCACAUCUACGAAUUCUUGAGGAUGAAACAAUUUGGAGAAGCUAAGAUCGGAAGAGCACACGU | 14.9 ± 1.7
27 | target 2 MT 5'PFS GCG 3'PFS UAU (mixed) RNA 1: CACCCGUGCAAAAUUGCAGGGGUCUAAAACCUUCUCCAAAUUGUUUCAUCCU RNA 2: GGGAAUGGAUCCACAUCUACGAAUUCGCGAGGAUGAAACAAUUUGGAGAAGUAUAGAUCGGAAGAGCACACGU | 14.9 ± 2.4
28 | target 2 MT 5'PFS UGU 3'PFS AAC (mixed) RNA 1: CACCCGUGCAAAAUUGCAGGGGUCUAAAACCUUCUCCAAAUUGUUUCAUCCU RNA 2: GGGAAUGGAUCCACAUCUACGAAUUCUGUAGGAUGAAACAAUUUGGAGAAGAACAGAUCGGAAGAGCACACGU | 24 ± 7

Reference: article PMC10786891, “Massively parallel profiling of RNA-targeting CRISPR-Cas13d”
